According to patent US7528106B2, “Compositions and methods for treatment of neovascular diseases” (The Scripps Research Institute, priority 2004, dated 2009):

Tested on: deep retinal vascular network formation in neonatal Balb/C mice
Test: Neonatal mouse retinal angiogenesis model
Type: in vivo
Details: for % of eyes with 75-100% inhibition of deep vascular layer / % of eyes with 0-10% inhibition of deep vascular layer / % of eyes with 10-25% inhibition of deep vascular layer / % of eyes with 25-50% inhibition of deep vascular layer / % of eyes with 50-75% inhibition of deep vascular layer: intravitreal P4, read P12
Text: Description of the Model. Immediately after birth (postnatal day zero; “P0”), retinal vasculature is virtually absent in the mouse. By four weeks after birth (P28) the retina has attained an adult pattern of retinal vessels coincident with the onset of vision. Physiological neovascularization of the retina occurs during this period via a stereotypical, biphasic developmental pattern of angiogenesis. During the primary phase of retinal vascular development, spoke-like peripapillary vessels grow radially from the central retinal artery and vein, becoming progressively interconnected by a capillary plexus that forms between them. This “inner retinal plexus” grows in area, volume and complexity, centrifugally, as a monolayer within the nerve fiber layer during the first seven to ten days following birth.
The second phase of retinal vessel formation begins between postnatal days 7 (P7) and 10 (P10) when collateral branches sprout from capillaries of the superficial plexus and penetrate into the retina where their tips branch and anastamose laterally to form a planar “deep vascular plexus”. While the deep vascular plexus is in place by P14, it undergoes extensive remodeling from P14 to P21. It is of interest to note that the formation of these vascular networks in the neonatal mouse are strikingly similar to the events occurring in the third trimester human fetus.
Advantages and Quantification of the Model. The reproducibility of the murine retinal development process and its easy accessibility in neonatal animals provide an opportunity to assess the efficacy of antiangiogenic compounds in a physiologically relevant model of angiogenesis. Additional advantages of the neonatal mouse model are the ability to qualitatively and quantitatively evaluate the angiostatic effect of putative antagonists of angiogenesis. Angiostatic activity was evaluated based upon the degree of angiogenesis in the deep, outer retinal vascular layer (secondary layer) that develops between P8 and P12. The appearance of the inner blood vessel network (primary layer) was evaluated for normal development and signs of toxicity.
Preparation of Compositions. Peptidomimetic integrin signaling inhibitor Compound (1) is solubilized in PBS at a concentration of about 20 mg/ml in PBS (1× concentration). T2-TrpRS is solubilized in PBS at a concentration of about 0.5 mg/ml (1× concentration). VEGF aptamer (pegaptanib sodium; Compound (2)) is solubilized in PBS at a concentration of about 2 mg/ml (1× concentration) to achieve an injection of approximately 1 μg/eye at 1× concentration. For all combination assays the compounds were prepared at 2 or 3 times the 1× concentration of each material and then combined to produce a final solution containing each individual compound at the same concentration as was used alone (e.g., 1×, 0.5×, 0.25× or 0.1×, as the case may be). For all assays, a single injection of 0.5 μl of PBS solutions of the drugs was administered intravitreally regardless of the number of compounds being injected. As used herein, the term “0.1×” refers to one tenth of the 1× concentration of a given material, “0.25×” refers to one quarter of the 1× concentration of a given material, “0.5×” refers to one half of the 1× concentration of a given material, and so forth for similar designations.
An in vivo angiogenesis assay in the neonatal mouse (Balb/C, The Jackson Laboratory, Bar Harbor, Me.) was used to evaluate the angiostatic activity of integrin signaling inhibitor Compound (1), T2-TrpRS, and VEGF aptamer Compound (2). Intravitreous injection and retina isolation was performed with a dissecting microscope (SMZ 645, Nikon, Japan). […] The samples (0.5 μl) were injected with a Hamilton syringe fitted with a 32-gauge needle (Hamilton Company, Reno, Nev.). The injection was made between the equator and the corneal limbus. During injection, the location of the needle tip was monitored by direct visualization to determine that it was in the vitreal cavity. […]

[1] = Table 12, composite data from the Examples, 1× (Compound (2) 0.5× to 1×)
[2] = Table 13A, 0.25 μg per eye, intravitreal P7, read P12
[3] = Table 13C low dosing, 0.1x (integrin ant. 1.0 μg, VEGF apt. 0.20 μg, T2-TrpRS 0.025 μg)

B1: T2-TrpRS: 43 kDa angiostatic T2 fragment of human tryptophanyl-tRNA synthetase, SEQ ID NO: 1 (protein)
chain: MSAKGIDYDKLIVRFGSSKIDKELINRIERATGQRPHHFLRRGIFFSHRDMNQVLDAYENKKPFYLYTGRGPSSEAMHVGHLIPFIFTKWLQDVFNVPLVIQMTDDEKYLWKDLTLDQAYSYAVENAKDIIACGFDINKTFIFSDLDYMGMSSGFYKNVVKIQKHVTFNQVKGIFGFTDSDCIGKISFPAIQAAPSFSNSFPQIFRDRTDIQCLIPCAIDQDPYFRMTRDVAPRIGYPKPALLHSTFFPALQGAQTKMSASDPNSSIFLTDTAKQIKTKVNKHAFSGGRDTIEEHRQFGGNCDVDVSFMYLTFFLEDDDKLEQIRKDYTSGAMLTGELKKALIEVLQPLIAEHQARRKEVTDEIVKEFMTPRKLSFDFQ
modifications: homo sapiens
- % of eyes with 75-100% inhibition of deep vascular layer (Ex 10, 0.3× (1×=0.5 mg/ml)): 25%
- % of eyes with 0-10% inhibition of deep vascular layer (Ex 10, 1× (0.5 mg/ml)): 8.3%
- % of eyes with 10-25% inhibition of deep vascular layer (Ex 10, 1× (0.5 mg/ml)): 16.7%
- % of eyes with 25-50% inhibition of deep vascular layer (Ex 10, 1× (0.5 mg/ml)): 25%
- % of eyes with 50-75% inhibition of deep vascular layer (Ex 10, 1× (0.5 mg/ml)): 8.7%
- % of eyes with 75-100% inhibition of deep vascular layer (Ex 10, 1× (0.5 mg/ml)): 41.7%
- % of eyes with 0-10% inhibition of deep vascular layer (Ex 10, 2× (1×=0.5 mg/ml)): 8.3%
- % of eyes with 10-25% inhibition of deep vascular layer (Ex 10, 2× (1×=0.5 mg/ml)): 25%
- % of eyes with 25-50% inhibition of deep vascular layer (Ex 10, 2× (1×=0.5 mg/ml)): 0%
- % of eyes with 50-75% inhibition of deep vascular layer (Ex 10, 2× (1×=0.5 mg/ml)): 16.7%
- % of eyes with 75-100% inhibition of deep vascular layer (Ex 10, 2× (1×=0.5 mg/ml)): 41.7%
- % of eyes with 0-10% inhibition of deep vascular layer (Ex 10, 3× (1×=0.5 mg/ml)): 66.7%
- % of eyes with 10-25% inhibition of deep vascular layer (Ex 10, 3× (1×=0.5 mg/ml)): 25%
- % of eyes with 25-50% inhibition of deep vascular layer (Ex 10, 3× (1×=0.5 mg/ml)): 8.7%
- % of eyes with 50-75% inhibition of deep vascular layer (Ex 10, 3× (1×=0.5 mg/ml)): 0%
- % of eyes with 75-100% inhibition of deep vascular layer (Ex 10, 3× (1×=0.5 mg/ml)): 0%
- % of eyes with 0-10% inhibition of deep vascular layer (Ex 11, 0.3× (1×=0.5 mg/ml)): 33.3%
- % of eyes with 10-25% inhibition of deep vascular layer (Ex 11, 0.3× (1×=0.5 mg/ml)): 16.7%
- % of eyes with 25-50% inhibition of deep vascular layer (Ex 11, 0.3× (1×=0.5 mg/ml)): 0%
- % of eyes with 50-75% inhibition of deep vascular layer (Ex 11, 0.3× (1×=0.5 mg/ml)): 0%
- % of eyes with 75-100% inhibition of deep vascular layer (Ex 11, 0.3× (1×=0.5 mg/ml)): 50%
- % of eyes with 0-10% inhibition of deep vascular layer (Ex 11, 1× (0.5 mg/ml)): 14.3%
- % of eyes with 10-25% inhibition of deep vascular layer (Ex 11, 1× (0.5 mg/ml)): 14.3%
- % of eyes with 25-50% inhibition of deep vascular layer (Ex 11, 1× (0.5 mg/ml)): 7.1%
- % of eyes with 50-75% inhibition of deep vascular layer (Ex 11, 1× (0.5 mg/ml)): 14.3%
- % of eyes with 75-100% inhibition of deep vascular layer (Ex 11, 1× (0.5 mg/ml)): 50%
- % of eyes with 0-10% inhibition of deep vascular layer (Ex 11, 2× (1×=0.5 mg/ml)): 12.5%
- % of eyes with 10-25% inhibition of deep vascular layer (Ex 11, 2× (1×=0.5 mg/ml)): 12.5%
- % of eyes with 25-50% inhibition of deep vascular layer (Ex 11, 2× (1×=0.5 mg/ml)): 12.5%
- % of eyes with 50-75% inhibition of deep vascular layer (Ex 11, 2× (1×=0.5 mg/ml)): 12.5%
- % of eyes with 75-100% inhibition of deep vascular layer (Ex 11, 2× (1×=0.5 mg/ml)): 50%
- % of eyes with 0-10% inhibition of deep vascular layer (Ex 11, 3× (1×=0.5 mg/ml)): 14.3%
- % of eyes with 10-25% inhibition of deep vascular layer (Ex 11, 3× (1×=0.5 mg/ml)): 14.3%
- % of eyes with 25-50% inhibition of deep vascular layer (Ex 11, 3× (1×=0.5 mg/ml)): 14.3%
- % of eyes with 50-75% inhibition of deep vascular layer (Ex 11, 3× (1×=0.5 mg/ml)): 28.5%
- % of eyes with 75-100% inhibition of deep vascular layer (Ex 11, 3× (1×=0.5 mg/ml)): 28.5%
- % of eyes with 0-10% inhibition of deep vascular layer (Ex 11, 5× (1×=0.5 mg/ml)): 16.6%
- % of eyes with 10-25% inhibition of deep vascular layer (Ex 11, 5× (1×=0.5 mg/ml)): 33.3%
- % of eyes with 25-50% inhibition of deep vascular layer (Ex 11, 5× (1×=0.5 mg/ml)): 33.3%
- % of eyes with 50-75% inhibition of deep vascular layer (Ex 11, 5× (1×=0.5 mg/ml)): 16.6%
- % of eyes with 75-100% inhibition of deep vascular layer (Ex 11, 5× (1×=0.5 mg/ml)): 0%
- mice having 75-100% inhibition in the deep vascular layer, maximum over doses (Examples 10 and 11, 0.1× to 5×): ≤ 50%
- % of mice with 0-10% inhibition of deep vascular layer [1]: 23.9%
- % of mice with 10-25% inhibition of deep vascular layer [1]: 17.4%
- % of mice with 25-50% inhibition of deep vascular layer [1]: 15.2%
- % of mice with 50-75% inhibition of deep vascular layer [1]: 8.7%
- % of mice with 75-100% inhibition of deep vascular layer [1]: 34.8%
- % of mice with 100% inhibition of deep vascular layer [1]: 2.2%
- % of mice with >95% inhibition of deep vascular layer [1]: 8.7%
- Percentage of retinas with 0-10% neovascular inhibition [2]: 23.9%
- Percentage of retinas with 10-25% neovascular inhibition [2]: 17.4%
- Percentage of retinas with 25-50% neovascular inhibition [2]: 15.2%
- Percentage of retinas with 50-75% neovascular inhibition [2]: 8.7%
- Percentage of retinas with 100% neovascular inhibition [2]: 2.2%
- Percentage of retinas with >75% neovascular inhibition [2]: 34.8%
- Percentage of retinas with >90% neovascular inhibition [2]: 8.7%
- Percentage of retinas with 0-10% neovascular inhibition [3]: 50%
- Percentage of retinas with 10-25% neovascular inhibition [3]: 37.5%
- Percentage of retinas with 25-50% neovascular inhibition [3]: 12.5%
- Percentage of retinas with 50-75% neovascular inhibition [3]: 0%
- Percentage of retinas with 100% neovascular inhibition [3]: 0%
- Percentage of retinas with >75% neovascular inhibition [3]: 0%
- Percentage of retinas with >90% neovascular inhibition [3]: 0%
- retinas that developed a normal, complete deep vascular plexus (monotherapy at optimal dose): 24%
- retinas that exhibited over 75% inhibition (monotherapy at optimal dose): 35%
- efficacy at the 95-100% inhibition level (with increasing dosages, Examples 10 and 11): ≤ 50%
